{
  "source": "patent US20210275669A1",
  "binders": {"B1": {"name": "peptide LD01 (peptide)", "peptide": "CRRTSTGQISTLRVNITAPLSQ", "modifications": "not checked"}},
  "key": {"[1]": {"molecular_target": "CTLA-4 on PATHHUNTER CTLA4 Jurkat cells, P16410", "sequence (P16410 36-223 limits assumed)": "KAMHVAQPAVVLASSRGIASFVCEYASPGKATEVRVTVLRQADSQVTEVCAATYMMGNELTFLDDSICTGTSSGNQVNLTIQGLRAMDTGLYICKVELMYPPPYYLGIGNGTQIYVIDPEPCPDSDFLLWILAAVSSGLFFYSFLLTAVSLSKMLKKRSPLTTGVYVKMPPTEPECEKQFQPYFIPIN", "assay": "cell-based or functional assay"}, "[2]": {"molecular_target": "PD-1 on PATHHUNTER PD-1 Jurkat cells, Q15116", "sequence (Q15116 25-288 limits assumed)": "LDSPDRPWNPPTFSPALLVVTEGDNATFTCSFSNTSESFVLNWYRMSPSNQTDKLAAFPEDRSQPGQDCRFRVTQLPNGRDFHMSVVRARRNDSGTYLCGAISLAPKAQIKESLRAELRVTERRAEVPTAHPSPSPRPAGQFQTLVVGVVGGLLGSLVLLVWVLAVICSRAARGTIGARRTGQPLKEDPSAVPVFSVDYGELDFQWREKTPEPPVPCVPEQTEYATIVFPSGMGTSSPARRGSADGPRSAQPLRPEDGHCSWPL", "assay": "cell-based or functional assay"}},
  "data": [
    {"binder": "B1", "values": [
      {"measurement": "% inhibition (PATHHUNTER CTLA4 assay; 100 µM; Study 2)", "setting": "[1]", "result": 51, "unit": "%"},
      {"measurement": "% inhibition (PATHHUNTER CTLA4 assay; 100 µM; Study 4)", "setting": "[1]", "result": 16, "unit": "%"},
      {"measurement": "% inhibition (PATHHUNTER CTLA4 assay; 100 µM; Study 6)", "setting": "[1]", "result": 46, "unit": "%"},
      {"measurement": "% inhibition (PATHHUNTER PD-1 assay; 100 µM; Study 1)", "setting": "[2]", "result": 50.5, "unit": "%"},
      {"measurement": "% inhibition (PATHHUNTER PD-1 assay; 100 µM; Study 2)", "setting": "[2]", "result": 79, "unit": "%"},
      {"measurement": "% inhibition (PATHHUNTER PD-1 assay; 100 µM; Study 4)", "setting": "[2]", "result": 65, "unit": "%"},
      {"measurement": "% inhibition (PATHHUNTER PD-1 assay; 100 µM; Study 5)", "setting": "[2]", "result": 24, "unit": "%"},
      {"measurement": "% inhibition (PATHHUNTER PD-1 assay; 100 µM; Study 6)", "setting": "[2]", "result": 83, "unit": "%"}
    ]}
  ]
}
